Positions count from the first letter of the chain named.
B1: fully human TBA4-1 (antibody, human IgG1, kappa, V domains shown)
VH: QVQLVESGGGVVQPGRSLRLSCAASGFTFSSYGMHWVRQAPGKGLAWVAIISSDGNNKYYIDSVKGRFTISRDNSKNTLYLQMNNLRAEDTAVYYCAKDSHISIFGAVDSWGQGTLVTVSS
VL: AIQMTQSPSSLSASVGDRVTITCRASQAIRNDLGWYQQKPGKAPKLLIYAASSLQSGVPSRFSGSGSGTDFTLTISSLQPEDFATYYCLQDYNYPWTFGQGTKVEIKR
notes: Human variable regions of TBA4-1 joined to human Ig gamma1 and human kappa constant regions; also called fully human antibody of TBA4-1; 完全ヒト型TBA4-1
B2: TBA4-1 (chimeric antibody) (antibody, V domains shown)
VH: B1 VH
VL: B1 VL
B3: fully human TBA3-35.1 (antibody, human IgG1, kappa, V domains shown)
VH: EVQLLESGGGLVQPGGSLRLSCAASGFTFSSYAMSWVRQAPGKGLEWVSAIGNSGFYTHYADSVKGRFTISRDNSKNTLYLQMNSLRAEDTAVYYCAKVGIAVVGDYYQFGMDVWGQGTTVTVSS
VL: B1 VL with A1D, A28G, A50G
B4: fully human TBA3-25 (antibody, human IgG1, kappa, V domains shown)
VH: QVQLVQSGAEVKKPGASVRVSCKVSGYTLIDLSMHWVRQAPGNGLEWMGGFDPENGEKIYAEKFQGRVTMTEDTSTDTAYMDLSSLRSEDTAVYYCASGYSYGHFDYWGQGTLVTVSS
VL: DIQMTQSPSTLSASVGDRVTITCRASQNIGRWLAWYQQKPGKAPNLLIYKASRLESGVPSRFSGSGSGTEFTLTITSLQPDDFATYYCQQYNRYSRTFGQGTKVEIKR
modifications: in most of the purified antibody: N-terminal glutamine (amino acid 1) modified to pyroglutamic acid; C-terminal lysine (amino acid 448) deleted
notes: Human variable regions of TBA3-25 joined to human Ig gamma1 and human kappa constant regions; Analysis of the purified antibody found pyroglutamate at the heavy chain N-terminus and loss of the heavy chain C-terminal lysine in most of it; also called fully human antibody of TBA3-25; 完全ヒト型TBA3-25

What was measured:
[1] = target: T1, human mTWEAK variant expressed on HEK293 cells (human, UniProt O43508 1-249); assay: flow cytometry (BD FACSArray) on HEK293 cells transfected with human mTWEAK vector, antibody 80 nM to 0.001355 nM, MFI
T1 construct: also called human mTWEAK mutant; membrane type TWEAK
T1 sequence: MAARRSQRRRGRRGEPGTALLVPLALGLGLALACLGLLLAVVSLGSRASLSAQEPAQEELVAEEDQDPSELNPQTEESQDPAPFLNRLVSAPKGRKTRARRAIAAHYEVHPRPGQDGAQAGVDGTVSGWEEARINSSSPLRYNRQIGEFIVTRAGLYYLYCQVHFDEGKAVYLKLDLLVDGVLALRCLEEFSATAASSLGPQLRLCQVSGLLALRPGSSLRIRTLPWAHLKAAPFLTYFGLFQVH

[2] = target: T2, human sTWEAK protein (Peprotech, 310-06) (human, UniProt O43508 97-249); assay: ELISA, sTWEAK immobilised at 0.5 μg/mL, antibody 80 nM to 0.0000003 nM, chemiluminescence
T2 construct: Bought protein; also called soluble type TWEAK; ヒトsTWEAK
T2 sequence: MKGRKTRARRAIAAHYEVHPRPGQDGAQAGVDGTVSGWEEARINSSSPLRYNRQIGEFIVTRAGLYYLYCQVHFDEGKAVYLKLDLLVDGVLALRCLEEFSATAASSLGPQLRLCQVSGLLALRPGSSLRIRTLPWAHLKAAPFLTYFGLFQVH

[3] = target: T2, human sTWEAK protein (Peprotech, 310-06); assay: hybridoma screening, antigen ELISA on immobilised sTWEAK (Examples 3-6)
[4] = target: T1, human mTWEAK variant expressed on …; assay: hybridoma screening (Examples 3-6)

| Binder | binding result [1] | binding result [2] | binding result [3] | binding result [4] |
| --- | --- | --- | --- | --- |
| B1 | binds | binds |  |  |
| B2 |  |  | binds | binds |
| B3 | binds | binds |  |  |
| B4 | binds | binds |  |  |
